In the RNAGym collection of RNA variant scans (doi:10.7554/elife.80360) one finds self-cleavage data, which are given here for 54 variants.

B1: Twister Ribozyme (parent)
chain: AACACUGCCAAUGCCGGUCCCAAGCCCGGAUAAAAGUGGAGGGGGCGG

The data set covers variants of B1. The data set is described as follows: self-cleavage, relative activity (ratio to wild type); higher = more cleavage; co-transcriptional.
On to AACACUGCCAACGCCGGUCCCAAGCCCGGAUCAAAGUGGAGGGGGCGG, for which the self-cleavage was 0.982. With AACACUGCCAACGCCGGUCCCAAGCCCGGAUGAAAGUGGAGGGGGCGG the figure was 1.24.

As for AACACUGCCAACGCCGGUCCGAAGCCCGGAUAAAAGUGGAGGGGGCGG, the self-cleavage was determined as 0.0654. Then AACACUGCCAACGCCGGUCCUAAGCCCGGAUAAAAGUGGAGGGGGCGG, with 0.0795; and AACACUGCCAAGGCCGGUCCCAAGCCCGGAUAAAGGUGGAGGGGGCGG, with 0.815. As to AACACUGCCAAGGGCGGUCCCAAGCCCGGAUAAAAGUGGAGGGGGCGG, the self-cleavage was 0.124.

Regarding AACACUGCCAAGGUCGGUCCCAAGCCCGGAUAAAAGUGGAGGGGGCGG, the self-cleavage turned out to be 0.756. With AACACUGCCAAGGACGGUCCCAAGCCCGGAUAAAAGUGGAGGGGGCGG the figure was 0.726; with AACACUGCCAACGCCGGUCCCAAGCCCGAAUAAAAGUGGAGGGGGCGG, 0.988.

AACACUGCCAACGCCGGUCCCAAGCCCGGAUAAAAGUGGAGGAGGCGG: the self-cleavage is 0.243. Then AACACUGCCAACGCCGGUCCCAAGCCCGGAUAAAAGUGGAGGUGGCGG, with 0.485; and AACACUGCCAAGGCCGGUCCCAAGCCCGGAUAAAAGUGGGGGGGGCGG, with 0.163; and AACACUGCCAACGCCGGUCCCAAGCCCGGAUAAAAGUGGAGGGGGCGC, with 1.18. As for AACACUGCCAACGCCGGUCCCAAGCCCGGAUAAAAGUGGAGGGGGCGU, the self-cleavage was found to be 1.03.

AACACUGCCAACGCCGGUCCCAAGCCCGGAUAAAAGUGGAGGGGGCGA: the self-cleavage came to 0.952.

For AACACUGCCAAAGCCGGUCCCAAGCCCGGAUAAAAGUGGAGGGGUCGG, the self-cleavage is 1.02. With AACACUGCCAACGCCGGUCCCAAUCCCGGAUAAAAGUGGAGGGGGCGG the figure was 0.168; with AACACUGCCAACGCCGGUCCCAACCCCGGAUAAAAGUGGAGGGGGCGG, 0.0606; with AACACUGCCAAGGCCGGUCCCAAGCCCGGAUAACAGUGGAGGGGGCGG, 0.287. Then AACACUGCCAAGGCCGGUACCAAGCCCGGAUAAAAGUGGAGGGGGCGG, with 0.601; and AACACUGCCAAAGCCGGUCCCAAGCCCGGAUAAAAGGGGAGGGGGCGG, with 0.925. With AACACUGCCAAGGCCGGUCCCAAGCCCGGUUAAAAGUGGAGGGGGCGG the figure was 0.812; with AACACUGCCAAGGCCGGUCCCAAGCCCGGGUAAAAGUGGAGGGGGCGG, 0.783. On to AACACUGCCAACGCCGGUCCCAAGGCCGGAUAAAAGUGGAGGGGGCGG, for which the self-cleavage worked out at 0.439. Consider AACACUGCCAACGCCGGUCCCAAGCCCGGACAAAAGUGGAGGGGGCGG, for which the self-cleavage came to 0.938. Then AACACUGCCAACGCCUGUCCCAAGCCCGGAUAAAAGUGGAGGGGGCGG, with 0.799; and AACACUGCCAACGCCAGUCCCAAGCCCGGAUAAAAGUGGAGGGGGCGG, with 0.938; and AACACUGCCAAAGCCGGUCCCAAGCCCGGAUAAAAGUGGAGGGCGCGG, with 1.19. With AACACUGCCAAAGCCGGUCCCAAGCCCGGAUAAAAGUGGAGGGAGCGG the figure was 1.04.

Regarding AACACUGCCAAAGCCGGUCCCAAGCCCGGAUAAAAGUGGAGGGUGCGG, the self-cleavage was determined as 1.05. With AACACUGCCAACGCCGGUCCCAGGCCCGGAUAAAAGUGGAGGGGGCGG the figure was 0.486; with AACACUGCCAACGCCGGUCCCAAGCCCGGCUAAAAGUGGAGGGGGCGG, 0.761. As for AACACUGCCAAAGCCGGUCCCAAGCCCGGAUAAAAGUGGAGGAGGCGG, the self-cleavage came out at 0.298.

Take AACACUGCCAAAGCCGGUCCCAAGCCCGGAUAAAAGUGGAGGUGGCGG: the self-cleavage was 0.477.

Turning to AACACUGCCAAGGCGGGUCCCAAGCCCGGAUAAAAGUGGAGGGGGCGG, the self-cleavage is 0.115. Then AACACUGCCAAGGCAGGUCCCAAGCCCGGAUAAAAGUGGAGGGGGCGG, with 0.614; and AACACUGCCAACGCCGGUCCCAAGCCCGGAUAAAAGUGGAGCGGGCGG, with 0.486. Then AACACUGCCAACGCCGGUCCCAAGCCCGGAUAAAAGUGGAGAGGGCGG, with 0.42; and AACACUGCCAACGCCGGUCCCAAGCCCGGAUAAAAGUGGAGUGGGCGG, with 0.331. With AACACUGCCAACGCCGGUCCCAAGCCCGGAUAGAAGUGGAGGGGGCGG the figure was 1; with AACACUGCCAACGCCGGUCCCAAGCCCGGAUACAAGUGGAGGGGGCGG, 0.876. Consider AACACUGCCAACGCCGGUCCCAAGCCCGGAUAUAAGUGGAGGGGGCGG, for which the self-cleavage is 1.01. AACACUGCCAAAGCCGGUCCCAAGCCCGGAUAAAAGUGCAGGGGGCGG: the self-cleavage stood at 0.127. In the case of AACACUGCCAAAGCCGGUCCCAAGCCCGGAUAAAAGUGAAGGGGGCGG, the self-cleavage turned out to be 0.677. AACACUGCCAAAGCCGGUCCCAAGCCCGGAUAAAAGUGUAGGGGGCGG: the self-cleavage came out at 0.242.

As for AACACUGCCAAAGCCGGUCCCAAGCCCGGAUAAAAGUGGAAGGGGCGG, the self-cleavage was 0.696. Then AACACUGCCAAAGCCGGUCCCAAGCCCGGAUAAAAGUGGACGGGGCGG, with 0.264; and AACACUGCCAACGACGGUCCCAAGCCCGGAUAAAAGUGGAGGGGGCGG, with 0.818. Then AACACUGCCAACGGCGGUCCCAAGCCCGGAUAAAAGUGGAGGGGGCGG, with 0.0887; and AACACUGCCAACGCCGGUCCCAAGCCCGGAUAAAAGUCGAGGGGGCGG, with 0.951; and AACACUGCCAACGCCGGUCCCAAGCCCGGAUAAAAGUAGAGGGGGCGG, with 0.929. For AACACUGCCAACGCCGGUCCCAAGCCCGGAUAAAAGUGGAUGGGGCGG, the self-cleavage was determined as 0.614. On to AACACUGCCAACGCCGGUCCCUAGCCCGGAUAAAAGUGGAGGGGGCGG, for which the self-cleavage came to 0.805.

In the case of AACACUGCCAACGCCGGUCCCCAGCCCGGAUAAAAGUGGAGGGGGCGG, the self-cleavage was found to be 0.861.
